Test results: US20110002926A1 (MEDICAL RESEARCH COUNCIL, published 2011)
Where no end group is shown, it is not given here.

Tests used:
E2 peptide B1 = biological target: T1, E2 peptide B1 (not fully specified (residue 16, C-terminus); also: biotin at C-terminal GSGK, site not given here); assay: peptide ELISA, biotinylated peptide on streptavidin, COS7 supernatant, OD 655 nm
T1 peptide: NLINTNGSWHINGSGK

Peptide D3 = biological target: T2, Peptide D3 (also: C-terminal linker GSGK-biotin, biotin attachment not given here); assay: as above
T2 peptide: QLINTNGSWHINGSGK

[1] = biological target: T3, peptide H6 (AP33 mimotope) (not fully specified (residue 16, C-terminus); printed as VELRNLGGTWRPGSGK-biotin; also: biotin at C-terminal GSGK, site not given here); assay: as above
T3 construct: Mimotope for AP33 identified by phage display; captured on streptavidin plates; also called mimotope H6; H6 mimotope
T3 peptide: VELRNLGGTWRPGSGK

[2] = biological target: HCV E1E2 glycoproteins of genotype 1b (Con1) (Hepatitis C virus genotype 1b (Con1), UniProt Q9WMX2 384-746; Q9WMX2 192-383); assay: cell-based or functional assay
[3] = biological target: HCV E1E2 glycoproteins of genotype 2a (J6) (Hepatitis C virus genotype 2a (J6), UniProt P26660 384-750; P26660 192-383); assay: cell-based or functional assay
[4] = biological target: HCV E1E2 glycoproteins of isolate 5.15.11 on HCVpp (Hepatitis C virus genotype 5); assay: cell-based or functional assay
[5] = biological target: HCV E1E2 glycoproteins of isolate 1B5.23 on HCVpp (Hepatitis C virus genotype 1); assay: cell-based or functional assay
[6] = biological target: HCV E1E2 glycoproteins of isolate 6.5.8 on HCVpp (Hepatitis C virus genotype 6); assay: cell-based or functional assay
[7] = biological target: HCV E1E2 glycoproteins of genotype 2a JFH1 on HCVpp (Hepatitis C virus genotype 2a, UniProt Q99IB8 384-750; Q99IB8 192-383); assay: cell-based or functional assay
[8] = biological target: HCV E1E2 glycoproteins of isolate 1A20.8 on HCVpp (Hepatitis C virus genotype 1); assay: cell-based or functional assay
[9] = biological target: HCV E1E2 glycoproteins of isolate 2B1.1 on HCVpp (Hepatitis C virus genotype 2); assay: cell-based or functional assay
[10] = biological target: HCV E1E2 glycoproteins of isolate 2A2.4 on HCVpp (Hepatitis C virus genotype 2); assay: cell-based or functional assay
[11] = biological target: HCV E1E2 glycoproteins of genotype 3a F4/2-35 on HCVpp (Hepatitis C virus genotype 3a); assay: cell-based or functional assay
[12] = biological target: HCV E1E2 glycoproteins of isolate 4.21.16 on HCVpp (Hepatitis C virus genotype 4); assay: cell-based or functional assay
[13] = biological target: T4, soluble HCV E2 (sE2661), HIS-tagged, baculovirus expressed (Hepatitis C virus (genotype )); assay: BIAcore SPR, antibody captured on anti-human Fc chip, sE2 1.56-50 nM injected, 1:1 Langmuir fit
T4 construct: extracellular domain; also called soluble E2

[14] = biological target: T5, HCV E2 as part of the E1E2 heterodimer expressed on the surface of 293T cells (Hepatitis C virus (genotype )); assay: Scatchard analysis, 125I-antibody competition with unlabeled antibody on E1E2-transfected 293T cells
T5 construct: whole, on cells; also called E1E2 Scatchard; cell surface expressed E2

HCV E1E2 glycoproteins of genotype 2a JFH1 on HCVpp, sequence (Q99IB8 384-750 limits assumed, chain 1 of 2): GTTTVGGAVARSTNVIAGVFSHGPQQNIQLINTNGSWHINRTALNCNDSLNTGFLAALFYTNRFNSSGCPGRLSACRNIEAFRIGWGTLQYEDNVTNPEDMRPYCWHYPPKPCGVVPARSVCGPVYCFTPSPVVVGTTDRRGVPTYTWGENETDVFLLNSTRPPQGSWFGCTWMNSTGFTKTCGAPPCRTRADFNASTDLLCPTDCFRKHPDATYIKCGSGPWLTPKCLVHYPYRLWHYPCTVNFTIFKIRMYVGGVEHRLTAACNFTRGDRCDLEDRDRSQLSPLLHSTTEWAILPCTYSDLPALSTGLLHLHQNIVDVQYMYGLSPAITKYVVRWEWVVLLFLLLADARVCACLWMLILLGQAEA
HCV E1E2 glycoproteins of genotype 2a JFH1 on HCVpp, sequence (Q99IB8 192-383 limits assumed, chain 2 of 2): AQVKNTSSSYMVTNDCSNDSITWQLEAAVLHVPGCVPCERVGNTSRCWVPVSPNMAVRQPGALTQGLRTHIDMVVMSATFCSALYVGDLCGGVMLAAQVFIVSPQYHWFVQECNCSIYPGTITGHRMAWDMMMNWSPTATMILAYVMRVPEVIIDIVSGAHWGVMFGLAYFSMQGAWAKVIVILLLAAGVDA
HCV E1E2 glycoproteins of genotype 1b (Con1), sequence (Q9WMX2 384-746 limits assumed, chain 1 of 2): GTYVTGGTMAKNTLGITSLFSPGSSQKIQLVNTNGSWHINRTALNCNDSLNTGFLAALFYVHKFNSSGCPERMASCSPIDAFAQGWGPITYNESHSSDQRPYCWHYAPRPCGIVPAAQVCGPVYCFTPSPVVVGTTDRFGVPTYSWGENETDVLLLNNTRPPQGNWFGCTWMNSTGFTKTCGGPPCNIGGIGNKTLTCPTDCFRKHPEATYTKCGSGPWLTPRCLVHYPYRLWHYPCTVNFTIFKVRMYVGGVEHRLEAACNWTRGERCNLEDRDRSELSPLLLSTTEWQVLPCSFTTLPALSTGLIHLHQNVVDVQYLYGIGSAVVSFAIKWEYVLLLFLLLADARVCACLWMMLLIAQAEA
HCV E1E2 glycoproteins of genotype 1b (Con1), sequence (Q9WMX2 192-383 limits assumed, chain 2 of 2): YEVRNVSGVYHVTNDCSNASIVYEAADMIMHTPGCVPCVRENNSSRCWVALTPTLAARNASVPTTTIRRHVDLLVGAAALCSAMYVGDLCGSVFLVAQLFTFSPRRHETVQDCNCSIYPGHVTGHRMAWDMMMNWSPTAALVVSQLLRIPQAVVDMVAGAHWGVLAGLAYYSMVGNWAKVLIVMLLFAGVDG

B1: RHb-h/Vl (humanized heavy chain RHb-h with chimeric AP33 light chain) (antibody, V domains shown)
VH: QVQLQESGPGLVKPSETLSLTCTVSGDSITSGYWNWIRQPPGRALEYMGYISYSGSTYYNLSLRSRITISRDTSKNQYSLRLSSVTAADTAMYYCALITTTTYAMDYWGQGTTVTVS
VL: NIVLTQSPVSLAVSLGQRATISCRASESVDGYGNSFLHWFQQKPGQPPKLLIYLASNLNSGVPARFSGSGSRTDFTLTIDPVEADDAATYYCQQNNVDPWTFGGGTKLEIK
notes: also called RHb-h/V1; the humanized heavy chain
binding result (E2 peptide B1): no binding (tested: about 500 ng/ml) | EC50 (read off the curve) (Peptide D3): ~0.02 µg/mL | EC50 (read off the curve) [1]: ~0.02 µg/mL

B2: humanized AP33 antibody RH-C/RK2b (antibody, V domains shown)
VH: QVQLQESGPGLVKPSETLSLTCTVSGDSITSGYWNWIRQPPGRALEWMGYISYSGSTYYNLSLRSRITISRDTSKNQYSLRLSSVTAADTAMYYCALITTTTYAMDYWGQGTTVTVSS
VL: EIVLTQSPSSLSASVGDRVTITCRASESVDGYGNSFLHWFQQKPGKAPKLLIYLASNLNSGVPSRFSGSGSGTDFTLTISSLQPEDFATYYCQQNNVDPWTFGQGTKLEIK
notes: also called RH-C antibody
EC50 of HCVpp entry into Huh-7.5 cells (luciferase) [2]: 0.511 µg/mL | EC50 of HCVpp entry into Huh-7.5 cells (luciferase) [3]: 0.793 µg/mL | neutralization of HCVcc infection of Huh-7.5 cells (RT-qPCR), fold against AP33 [3]: ≥ 4.7 fold | IC50 of HCVpp infection of Huh-7 cells (luciferase) [4]: 0.053 µg/mL | IC90 of HCVpp infection of Huh-7 cells (luciferase) [4]: 0.82 µg/mL | IC50 of HCVpp infection of Huh-7 cells (luciferase) [5]: 0.9 µg/mL | IC90 of HCVpp infection of Huh-7 cells (luciferase) [5]: 8.3 µg/mL | IC50 of HCVpp infection of Huh-7 cells (luciferase) [6]: < 0.41 µg/mL | IC90 of HCVpp infection of Huh-7 cells (luciferase) [6]: 1.8 µg/mL | IC50 of HCVpp infection of Huh-7 cells (luciferase) [7]: 0.64 µg/mL | IC90 of HCVpp infection of Huh-7 cells (luciferase) [7]: 7 µg/mL | IC50 of HCVpp infection of Huh-7 cells (luciferase) [8]: 1.6 µg/mL | IC90 of HCVpp infection of Huh-7 cells (luciferase) [8]: 15 µg/mL | IC50 of HCVpp infection of Huh-7 cells (luciferase) [9]: 3 µg/mL | IC90 of HCVpp infection of Huh-7 cells (luciferase) [9]: > 15 µg/mL | IC50 of HCVpp infection of Huh-7 cells (luciferase) [10]: 0.51 µg/mL | IC90 of HCVpp infection of Huh-7 cells (luciferase) [10]: 6 µg/mL | IC50 of HCVpp infection of Huh-7 cells (luciferase) [11]: < 0.41 µg/mL | IC90 of HCVpp infection of Huh-7 cells (luciferase) [11]: 2.15 µg/mL | IC50 of HCVpp infection of Huh-7 cells (luciferase) [12]: < 0.41 µg/mL | IC90 of HCVpp infection of Huh-7 cells (luciferase) [12]: 0.92 µg/mL | Kd [13]: 3.8 nM | Kd [14]: 5 nM
